Assay results published in publication PMC4335299 (Genes & Development, 2015).
Residue numbers refer to the chain shown, from its start. Names and notes keep the numbering of the source. Like-named read-outs stand apart in the source and are kept apart here.

How the values were obtained:
[1] = target: Bacillus megaterium TnrA, full length (Bacillus megaterium); assay: crystal structure
[2] = target: Bacillus subtilis GlnK, wild type (Bacillus subtilis); assay: SAXS
[3] = target: Bacillus subtilis GlnK, wild type (Bacillus subtilis); assay: crystal structure
[4] = target: Bacillus subtilis TnrA, full length (Bacillus subtilis) (UniProt Q45666); assay: ITC
[5] = target: T1, GlnRΔ18 (Bacillus subtilis, UniProt P37582 1-117, del118-135); assay: fluorescence polarization
T1 sequence: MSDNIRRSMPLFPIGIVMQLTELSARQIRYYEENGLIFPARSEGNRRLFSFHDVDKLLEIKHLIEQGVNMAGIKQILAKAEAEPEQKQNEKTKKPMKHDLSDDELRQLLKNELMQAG

[6] = target: T2, TnrA (Bacillus subtilis, UniProt Q45666 1-110); assay: fluorescence polarization
T2 sequence: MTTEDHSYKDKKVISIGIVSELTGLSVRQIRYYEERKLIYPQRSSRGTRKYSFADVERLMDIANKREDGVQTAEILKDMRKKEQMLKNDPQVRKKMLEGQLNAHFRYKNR

[7] = target: T3, Bacillus subtilis glutamine synthetase, wild type, full length (Bacillus subtilis, UniProt P12425 1-444); assay: crystal structure
T3 sequence (looked up): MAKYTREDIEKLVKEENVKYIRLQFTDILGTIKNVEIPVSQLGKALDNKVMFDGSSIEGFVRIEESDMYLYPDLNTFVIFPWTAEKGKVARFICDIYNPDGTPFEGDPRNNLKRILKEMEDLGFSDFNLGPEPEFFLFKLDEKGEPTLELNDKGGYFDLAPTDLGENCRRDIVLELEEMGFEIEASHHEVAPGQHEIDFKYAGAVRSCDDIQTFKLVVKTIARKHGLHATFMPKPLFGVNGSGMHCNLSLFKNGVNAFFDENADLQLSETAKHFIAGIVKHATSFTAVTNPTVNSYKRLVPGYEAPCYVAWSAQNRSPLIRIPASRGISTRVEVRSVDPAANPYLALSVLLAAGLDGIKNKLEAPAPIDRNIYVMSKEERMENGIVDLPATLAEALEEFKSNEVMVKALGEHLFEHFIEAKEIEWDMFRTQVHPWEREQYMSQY

[8] = target: T4, GS(E424K) (Bacillus subtilis, UniProt P12425 1-444, E424K); assay: fluorescence polarisation
T4 sequence (looked up): T3 sequence (looked up) with E424K

[9] = target: T3, Bacillus subtilis glutamine synthetase, …; assay: crystal structure; remark: listed apart in the source
[10] = target: T5, TnrA (Bacillus megaterium, UniProt G2RUZ1 1-108); assay: X-ray crystallography
T5 sequence: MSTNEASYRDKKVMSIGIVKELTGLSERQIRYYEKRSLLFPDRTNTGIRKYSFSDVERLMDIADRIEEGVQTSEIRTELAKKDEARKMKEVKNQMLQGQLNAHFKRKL

[11] = target: T6, TnrA;GlnK (Bacillus subtilis;Bacillus subtilis, UniProt Q45666;Q07428 1-110;1-116, |); assay: SAXS
T6 sequence 1: T2 sequence
T6 sequence 2: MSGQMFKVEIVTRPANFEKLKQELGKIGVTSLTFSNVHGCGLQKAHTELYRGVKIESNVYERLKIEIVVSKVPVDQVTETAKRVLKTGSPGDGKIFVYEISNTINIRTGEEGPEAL

[12] = target: the molecule itself; assay: crystal structure
[13] = target: T7, GlnR FL (Bacillus subtilis, UniProt P37582 1-135); assay: fluorescence polarization
T7 sequence: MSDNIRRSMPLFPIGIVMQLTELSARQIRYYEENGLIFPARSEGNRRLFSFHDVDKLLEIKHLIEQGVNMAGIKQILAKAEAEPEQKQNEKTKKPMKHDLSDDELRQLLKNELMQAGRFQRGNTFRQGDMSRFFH

Molecule “Bacillus megaterium TnrA, full length (natural protein)” has a stoichiometry N [1] of 2.

With “Bacillus subtilis GlnK, wild type (natural protein)” the stoichiometry N [2] was 3, the stoichiometry N [3] was 3 and the stoichiometry N (GlnK subunit per TnrA subunit) [4] was 0.5.

B1: 17mer FP (dsDNA)
DNA 1: TGTAAGATTTCCTGACA
DNA 2: TGTCAGGAAATCTTACA
B1 gave a Kd [5] of 8.1 ± 0.3 nM and a Kd [6] of 15.7 ± 0.9 nM.

B2: GlnR C-terminal peptide (peptide)
peptide: RFQRGNTFRQGDMSRFFH
B2: binds [7].

B3: TnrA(K108E) (natural protein, Bacillus subtilis, UniProt Q45666 1-110, looked up)
chain: T2 sequence with K108E
B3: binds [8].

B4: TnrA(74–110) (domain or fragment, Bacillus subtilis, UniProt Q45666 74-110, looked up)
chain: EILKDMRKKEQMLKNDPQVRKKMLEGQLNAHFRYKNR
B4: binds [9].

B5: 21mer site (crystal) (dsDNA)
DNA 1: CGTGTAAGATTTCCTGACACG
DNA 2: CGTGTCAGGAAATCTTACACG
B5: binds [10].

B6: 17mer SAXS (dsDNA)
DNA 1: TGTCAGATAATCTGACA
DNA 2: TGTCAGATTATCTGACA
B6: binds [11].

B7: GlnRΔ18 (domain or fragment, Bacillus subtilis, UniProt P37582 1-117, looked up)
chain: T1 sequence
With B7 the “stoichiometry N” value [12] was 2.

B8: 21mer FP (dsDNA)
DNA 1: CGTGTAAGATTTCCTGACACG
DNA 2: CGTGTCAGGAAATCTTACACG
B8 was tested, and the Kd [5] was 6 ± 0.9 nM, the Kd [6] was 11.6 ± 1.8 nM and the binding signal [13] was > 10 fold weaker than GlnRΔ18.
